From publication PMC5686756, “IKKγ-Mimetic Peptides Block the Resistance to Apoptosis Associated with Kaposi's Sarcoma-Associated Herpesvirus Infection” (Journal of Virology, 2017)
Positions of bridges follow the written chain, without caps; N, C: chain ends. Non-standard residues stand in square brackets, D forms with d. No end group written: not given here. S5 = C=CCCC[C@](C)(N)C(=O)O

B1: IKKγ fragment encompassing residues 150 to 272 (domain or fragment, UniProt Q9Y6K9 150-272, looked up)
chain: LGELQESQSRLEAATKECQALEGRARAASEQARQLESEREALQQQHSVQVDQLRMQGQSVEAALRMERQAASEEKRKLAQLQVAYHQLFQEYDNHIKSSVVGSERKRGMQLEDLKQQLQQAEE
notes: also called IKKγ(150–272); NEMO

What was measured:
[1] = biological target: T1, GB1-tagged ks-vFLIP (residues 1 to 188) (Kaposi's sarcoma-associated herpesvirus …, UniProt Q76RF1 1-188); experiment: ITC; IKKγ(150–272) (~85-100 μM, syringe) titrated into GB1-vFLIP (~8-10 μM, cell); deionized water, 4% DMSO, 25°C; one-site model; apparent; details: both partners purified
T1 construct: KSHV vFLIP (ks-vFLIP), residues 1 to 188, cloned into GB1-pBR22b (modified pET22b); GB1 is the streptococcal protein G immunoglobulin domain fusion tag; also called GB1–ks-vFLIP; GB1-vFLIP; source: E. coli BL21(DE3), purified (His-trap, Superdex S75 size exclusion); not shown: GB1, N-terminal, kept

[2] = biological target: T1, GB1-tagged ks-vFLIP (residues 1 to 188); experiment: ITC; competition: GB1–ks-vFLIP first incubated with 20 μM spIKKγ and 4% DMSO, then titrated with IKKγ(150–272); deionized water, 25°C; apparent; details: both partners purified

| Binder | Kd [1] | apparent Kd in the presence of spIKKγ (20 μM) [2] | Ki [2] |
| --- | --- | --- | --- |
| B1 | 380 nM | 30000 nM | – |
| LQVAYH[S5]LFQ[S5]YDNHIKSSC (staple 7-11) [spIKKγ, conformationally constrained stapled 20-mer peptide of the IKKγ minimal interacting motif (L] | – | – | 257 nM |
